Assay results as given in patent publication US20200199559A1.
Where two headings read alike, the source gives them in different places.

T1: wild type Penicillium oxalicum glucoamylase
T1 sequence: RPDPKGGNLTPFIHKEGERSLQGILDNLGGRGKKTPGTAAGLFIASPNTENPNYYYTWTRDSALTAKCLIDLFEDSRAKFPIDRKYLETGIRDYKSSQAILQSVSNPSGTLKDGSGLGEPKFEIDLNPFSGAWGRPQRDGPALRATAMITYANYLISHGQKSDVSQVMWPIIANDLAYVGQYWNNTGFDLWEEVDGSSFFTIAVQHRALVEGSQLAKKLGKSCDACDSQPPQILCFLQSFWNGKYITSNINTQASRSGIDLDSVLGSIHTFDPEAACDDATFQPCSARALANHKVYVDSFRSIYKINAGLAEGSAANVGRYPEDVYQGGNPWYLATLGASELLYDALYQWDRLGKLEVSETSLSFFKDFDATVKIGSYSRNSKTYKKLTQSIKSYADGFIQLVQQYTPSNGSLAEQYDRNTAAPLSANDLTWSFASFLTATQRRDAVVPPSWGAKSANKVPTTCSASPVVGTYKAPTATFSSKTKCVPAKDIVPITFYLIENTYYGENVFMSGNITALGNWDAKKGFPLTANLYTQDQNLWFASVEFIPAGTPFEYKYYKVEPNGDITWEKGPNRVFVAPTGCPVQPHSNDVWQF

T2: wild type Penicillium oxalicum glucoamylase
T2 chain: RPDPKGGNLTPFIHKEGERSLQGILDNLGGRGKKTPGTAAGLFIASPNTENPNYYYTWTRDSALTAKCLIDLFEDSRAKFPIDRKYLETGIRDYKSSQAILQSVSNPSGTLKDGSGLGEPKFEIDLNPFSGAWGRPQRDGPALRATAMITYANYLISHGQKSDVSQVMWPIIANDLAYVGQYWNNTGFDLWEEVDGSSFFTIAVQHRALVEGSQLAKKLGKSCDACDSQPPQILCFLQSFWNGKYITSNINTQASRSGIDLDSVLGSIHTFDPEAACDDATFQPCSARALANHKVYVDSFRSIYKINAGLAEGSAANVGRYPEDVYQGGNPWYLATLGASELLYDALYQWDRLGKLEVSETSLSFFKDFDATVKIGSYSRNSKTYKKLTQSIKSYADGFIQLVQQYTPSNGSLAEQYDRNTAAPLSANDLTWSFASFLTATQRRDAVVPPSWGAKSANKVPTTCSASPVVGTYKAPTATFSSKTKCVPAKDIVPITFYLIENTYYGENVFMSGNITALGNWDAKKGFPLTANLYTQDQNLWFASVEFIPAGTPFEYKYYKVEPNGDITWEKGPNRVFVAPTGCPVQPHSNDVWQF


What was measured:
[1] = molecular target: Glucoamylase PE001: variant of the Penicillium oxalicum glucoamylase having a K79V substitution (Penicillium oxalicum); test: cell-based or functional assay
[2] = molecular target: wild type Penicillium oxalicum glucoamylase (Penicillium oxalicum); test: cell-based or functional assay
[3] = tested on: T1, wild type Penicillium oxalicum glucoamylase
[4] = molecular target: T2, wild type Penicillium oxalicum …

Row | Molecule | intact glucoamylase (ca. 70 kDa), SDS-PAGE after protease treatment overnight at 4° C. [1] [%] | intact glucoamylase (ca. 70 kDa), SDS-PAGE after protease treatment overnight at 32° C. [1] [%] | intact glucoamylase (ca. 70 kDa), SDS-PAGE after protease treatment overnight at 4° C. [2] [%] | intact glucoamylase (ca. 70 kDa), SDS-PAGE after protease treatment overnight at 32° C. [2] [%] | cleaved glucoamylase (ca. 60 kDa), SDS-PAGE after protease treatment overnight at 32° C. [3] [%] | cleaved glucoamylase (ca. 60 kDa), SDS-PAGE after protease treatment overnight at 4° C. [4] [%] | cleaved glucoamylase (ca. 60 kDa), SDS-PAGE after protease treatment overnight at 32° C. [4] [%]
1 | aspergillopepsin I (enzyme) | 100 | 100 | 100 | 90 | – | – | –
2 | aspergillopepsin I | – | – | – | – | 10 | – | –
3 | aorsin (protein) GLNVTNCDQLITPECIRALYKIPSARAAPHPNNSLGIFEEGDYYAQEDLDLFFKTFAKDIPQGTHPIPAFIDGAEAPVPVTKAGGESDLDFELAYPIVHPQSITLYQTDDANWASNTTGFLNTFLDALDGSYCTYCAYGECGNDPSLDPVYPDDAGYDGQLMCGVFKPTNVISVSYGEQENDLPANYQQRQCMEFLKLGLQGVSVLFASGDNGVAGPPGDGNSVNGCLNNGTVFSPAFPNSCPYITNVGATKVYPGYTVSQPESAVYDPDGLYSYASGGGFSNIYPIPDYQAEAVATYFKDHNPPYPYYEGAENLGKNGGLYNRLGRGYPDVAANGDNIAVFNGGEFGSSGGTSASTPIFASIINRIIDERLAVGKGPVGFINPVLYKNPSVLNDITNGTNPGCGTDGFSTAPGWDPATGLGTPNYPKMLKLWLDLP | 100 | 100 | 40 | 10 | – | 60 | 90
